From US7718385B2, “Bioactivation of alkylating agents for cancer treatment” (priority 2003, dated 2010)

Substrate: CC1=C(CO)C2=C(C)C3(CC3)[C@@](C)(O)C(=O)C2=C1
Test: purified protein, by the assay type
Settings: other: formation of Product 8; 37.0 °C

B1: recombinant rat AOR (Rattus norvegicus; Q160G/Q263G/Q264G/Q276G) (protein)
chain: MVQAKTWTLKKHFEGFPTDSNFELRTTELPPLNNGEVLLEALFLSVDPYMRVAAKKLKEGDSMMGEQVARVVESKNSAFPTGTIVVALLGWTSHSISDGNGLRKLPAEWPDKLPLSLALGTVGMPGLTAYFGLLDICGLKGGETVLVNAAAGAVGSVVGGIAKLKGCKVVGTAGSDEKVAYLKKLGFDVAFNYKTVKSLEEALRTASPDGYDCYFDNVGGEFSNTVILQMKTFGRIAICGAISQYNRTGPCPPGPSPEVIIYGGLRMEGFIVTRWGGEVRQKALTDLMNWVSEGKIRYHEYITEGFEKMPAAFMGMLKGDNLGKTIVKA
Km: 145 µM | Vmax: 0.275 µmol/min/mg
